Residue numbers refer to the chain shown, from its start.
T1: mouse FcγRII extracellular domain, C-terminally His-tagged (mouse, UniProt P08101 30-210)
T1 construct: the whole entry is named; also called mFcγRII; mFcgRII
T1 sequence: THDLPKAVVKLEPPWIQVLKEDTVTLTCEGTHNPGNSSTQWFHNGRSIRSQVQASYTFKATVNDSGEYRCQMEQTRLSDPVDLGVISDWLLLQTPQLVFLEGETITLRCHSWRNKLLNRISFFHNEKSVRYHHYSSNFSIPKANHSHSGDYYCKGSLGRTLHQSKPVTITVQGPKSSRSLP

T2: mouse FcγRIII extracellular domain, C-terminally His-tagged (mouse, UniProt P08508 31-215)
T2 construct: the whole entry is named; also called mFcγRIII; mFcgRIII
T2 chain: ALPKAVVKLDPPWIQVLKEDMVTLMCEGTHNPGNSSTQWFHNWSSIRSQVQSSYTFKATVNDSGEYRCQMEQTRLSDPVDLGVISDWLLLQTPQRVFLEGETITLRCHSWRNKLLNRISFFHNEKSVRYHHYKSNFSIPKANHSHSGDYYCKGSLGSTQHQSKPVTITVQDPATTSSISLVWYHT

B1: H237-MB452/MRAL-k0 (antibody, mouse IgG1, kappa)
heavy: QVQLQESGPGLVKPSETLSLTCAVSGHSISHDHAWSWVRQPPGEGLEWIGFISYSGITNYNPSLQGRVTISRDNSKNTLYLQMNSLRAEDTAVYYCARSLARTTAMDYWGEGTLVTVSSAKTTPPSVYPLAPGSAAQTNSMVTLGCLVKGYFPEPVTVTWNSGSLSSGVHTFPAVLQSDLYTLSSSVTVPSSTWPSETVTCNVAHPASSTKVDKKIVPRDCGCKPCICETYEVEDVFIFPPKPKDVLTITLTPKVTCVVVDISKDDPEVQFSWFVDDVEVHTAQTQPREEQFNSTFRSVSELPIMHQDWLNGKEFKCRVNSAAFPQPIEKTISKTKGRPKAPQVYTIPPPKEQMAKDKVSLTCMITDFFPEDITVEWQWNGQPAENYKNTQPIMDTDGSYFVYSKLNVQKSNWEAGNTFTCSVLHEGLHNHHTEKSLSHSPGK
light: not shown
notes: copies: 2 + 2
B2: H237-MB459/MRAL-k0 (antibody, mouse IgG1, kappa)
heavy: B1 heavy with Q326A, T331N
light: not shown
notes: copies: 2 + 2
B3: H237-MB458/MRAL-k0 (antibody, mouse IgG1, kappa)
heavy: B1 heavy with Q326A, E329V
light: not shown
notes: copies: 2 + 2
B4: H237-MB453/MRAL-k0 (antibody, mouse IgG1, kappa)
heavy: B1 heavy with Q326A, P327D
light: not shown
notes: copies: 2 + 2
B5: H237-MB454/MRAL-k0 (antibody, mouse IgG1, kappa)
heavy: B1 heavy with Q326A, P327F
light: not shown
notes: copies: 2 + 2
B6: H237-MB456/MRAL-k0 (antibody, mouse IgG1, kappa)
heavy: B1 heavy with Q326A, E329N
light: not shown
notes: copies: 2 + 2
B7: H237-MB460/MRAL-k0 (antibody, mouse IgG1, kappa)
heavy: B1 heavy with Q326A, T331Y
light: not shown
notes: copies: 2 + 2
B8: H237-MB455/MRAL-k0 (antibody)
heavy: B1 heavy with Q326A, P327Y
light: not shown
notes: copies: 2 + 2
B9: H237-MB457/MRAL-k0 (antibody, mouse IgG1, kappa)
heavy: B1 heavy with Q326A, E329Y
light: not shown
notes: copies: 2 + 2

Key:
[1] = biological target: T1, mouse FcγRII extracellular domain, …; assay: SPR Biacore T200, KD ratio
From the text: (§1) The antibody H chain variable region used was the variable region H237 (SEQ ID NO: 1) of the H chain VH3-IgG1 of the anti-IL-6 receptor antibody Fv4-IgG1 described in WO2009/125825. The antibody L chain commonly used was the L chain MRAL-k0 (SEQ ID NO: 2) of the anti-IL-6 receptor antibody tocilizumab. […] The resulting variant groups were designated as MB397 variants and MB390 variants, respectively. These variants were expressed and purified by the method of Reference Example 1 and evaluated for their binding to mFcγRII and mFcγRIII by the method of Reference Example 2 using Biacore T200.
(§2) Each altered antibody was analyzed for its interaction with each Fcγ receptor prepared above using Biacore T100 (GE Healthcare Japan Corp.), Biacore T200 (GE Healthcare Japan Corp.), Biacore A100, or Biacore 4000. The running buffer used was HBS-EP+ (GE Healthcare Japan Corp.). The assay temperature was set to 25° C. The sensor chips used were chips prepared by immobilizing Protein L (ACTIGEN or BioVision) onto Series S Sensor Chip CM5 (GE Healthcare Japan Corp.) or Series S Sensor Chip CM4 (GE Healthcare Japan Corp.) by the amine coupling method.
(§3) In order to calculate the KD value of each altered antibody for FcγR, kinetic analysis was conducted according to the following method: first, the antibody of interest was captured onto any of these chips and allowed to interact with mFcγR diluted with a running buffer. For the obtained sensorgram, the assay results were globally fit into the 1:1 Langmuir binding model using Biacore Evaluation Software to calculate an association rate constant ka (L/mol/s) and a dissociation rate constant kd (1/s). From these values, the dissociation constant KD (mol/L) was calculated.

[2] = biological target: T2, mouse FcγRIII extracellular domain, …; assay: SPR Biacore T200, KD ratio
From the text: as §1, §2, §3

Row | Binder | relative mFcγRII-binding activity (MB397 = 1) [1] | relative mFcγRII-binding activity (mIgG1 = 1) [1] | relative mFcγRIII-binding activity (MB397 = 1) [2] | relative mFcγRIII-binding activity (mIgG1 = 1) [2]
1 | B1 | 0.08 fold | 46.9 fold | 0.23 fold | 4.4 fold
2 | B2 | 0.51 fold | 285 fold | 1.06 fold | 20.5 fold
3 | B3 | 0.46 fold | 253 fold | 0.81 fold | 15.7 fold
4 | B4 | 0.21 fold | 118 fold | 0.49 fold | 9.5 fold
5 | B5 | 0.53 fold | 295 fold | 1.04 fold | 20 fold
6 | B6 | 0.12 fold | 67.9 fold | 0.23 fold | 4.5 fold
7 | B7 | 0.6 fold | 332 fold | 1.1 fold | 21.2 fold
8 | B8 | 0.6 fold | 332 fold | 1.38 fold | 26.6 fold
9 | B9 | 0.36 fold | 202 fold | 0.7 fold | 13.6 fold

Source: patent publication US20150203577A1 (Chugai, published 2015)
